This note sets out measurements from US20230106715A1 (BIOSION, published 2023).

Experiment [1] addresses T1, cynomolgus monkey Siglec15-his protein (cynomolgus monkey).
T1 construct: In house made; also called Cynomolgus Siglec15-his; cynomolgus Siglec15
T1 chain: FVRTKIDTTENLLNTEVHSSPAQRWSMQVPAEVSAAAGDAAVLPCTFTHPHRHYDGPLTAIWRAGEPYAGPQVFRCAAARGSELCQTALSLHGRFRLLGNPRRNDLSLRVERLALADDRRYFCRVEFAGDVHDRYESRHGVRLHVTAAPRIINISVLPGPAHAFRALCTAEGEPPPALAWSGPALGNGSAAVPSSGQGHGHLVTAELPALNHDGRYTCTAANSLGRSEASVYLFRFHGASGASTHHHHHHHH
Description: indirect ELISA on coated cynomolgus Siglec15-his. How it is done: (§1) The anti-Siglec15 antibodies' cross-reactions to cynomolgus or mouse Siglec15 proteins were measured. Briefly, 96-well micro plates were coated with 100 μl of 2 μg/ml cynomolgus Siglec15-his protein (in house made with SEQ ID NO: 21), or 2 μg/ml mouse Siglec15-his protein (in house made with SEQ ID NO: 22) in carbonate/bicarbonate buffer (pH 9.6) for 2 hours at 37° C. ELISA plates were washed once with wash buffer (PBS+0.05% v/v Tween-20, PBST) and then blocked with 200 μl/well blocking buffer (5% w/v non-fatty milk in PBST) overnight at 4° C. Plates were washed 4 times and incubated with 100 μl serially diluted anti-Siglec15 antibodies of the disclosure or controls (starting at 66.7 nM, 5-fold serial dilution in PBST with 2.5% w/v non-fatty milk) for 40 minutes at 37° C. […] The reaction was stopped 4 minutes later at room temperature with 50 μl 1M H₂SO₄, and the absorbance of each well was read on a microplate reader using dual wavelength mode with 450 nm for TMB and 630 nm as the reference wavelength, then the OD (450-630) values were plotted against antibody concentration. Data was analyzed using Graphpad Prism software and EC₅₀ values were reported.
On the technique in general: ELISA stands for enzyme-linked immunosorbent assay.

Experiment [2] addresses T1, cynomolgus monkey Siglec15-his protein. In words: indirect ELISA on coated cynomolgus Siglec15-his. How it is done: as §1
Experiment [3] deals with T2, recombinant human Siglec15-his protein (human, UniProt Q6ZMC9 20-263).
T2 construct: In house made; Biotin-labeled in the capture ELISA
T2 sequence: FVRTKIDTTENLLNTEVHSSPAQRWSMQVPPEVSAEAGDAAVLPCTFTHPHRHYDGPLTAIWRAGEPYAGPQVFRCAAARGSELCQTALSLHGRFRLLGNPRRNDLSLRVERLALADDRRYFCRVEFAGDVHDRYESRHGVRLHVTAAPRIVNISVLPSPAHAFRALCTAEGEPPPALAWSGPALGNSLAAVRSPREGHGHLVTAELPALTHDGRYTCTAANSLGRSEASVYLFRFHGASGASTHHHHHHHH
Description: capture ELISA, captured antibody, biotin-labeled human Siglec15-his in solution. How it is done: Briefly, 96-well plates were coated with 100 μl of 2 μg/ml AffiniPure Goat Anti-Human IgG F(ab′)₂ fragment specific (Jackson Immuno Research, Cat #109-005-097) in PBS for 2 hours at 37° C. Plates were washed once with wash buffer (PBS+0.05% v/v Tween-20, PBST) and then blocked with 200 μl blocking buffer (5% w/v non-fatty milk in PBST) overnight at 4° C. Plates were washed 4 times and respectively incubated with 100 μl serially diluted anti-Siglec15 antibodies of the disclosure, the benchmark and hIgG (human immunoglobulin (pH4) for intravenous injection, Hualan Biological Engineering Inc.), 5-fold dilution in 2.5% w/v non-fatty milk in PBST starting at 66.7 nM, for 40 minutes at 37° C., and then washed 4 times again. […] The reaction was stopped in 4 minutes at room temperature with 50 μl/well 1M H₂SO₄, and the absorbance of each well was read on a microplate reader using dual wavelength mode with 450 nm for TMB and 630 nm as the reference wavelength, then the OD (450-630) values were plotted against antibody concentration. Data was analyzed using Graphpad Prism software and EC₅₀ values were reported.

Where two headings read alike, the source gives them in different places.

B1: anti-Siglec15 benchmark (ch5G12) (antibody, human IgG1, kappa, V domains shown)
VH: QVQLQQPGAELVKPGASVKMSCKASGYTFTSYWITWVIQRPGQGLEWIGDIYCGSDTMHYNEKFKNKATLTVDTSSSTAYMQLSSLTSEDSAVYYCARWWDYGSSYDYFDYWGQGTTLTVSS
VL: DIKMTQSPSSMYASLGERVTITCKASQDINSYLSWFQQKPGKSPKTLIYRANRLVDGVPSRFSGSGSGQDYSLTISSLEYEDMGIYYCLQYDEFPYTFGGGTKLEIKR
notes: ch5G12 (US 20190202912A1); also called BM; Siglec15-ch5G9
Turning to B1, the figures for the EC50 in experiment [1], in experiment [2] and in experiment [3] were 0.461 nM, 0.307 nM and 2.11 nM, respectively.
